Laboratory results from patent US20260159603A1 (BEAM THERAPEUTICS, published 2026).

B1: ABTx329 (VHH)
VHH: QLQLVESGGGLVQPGESLRLSCAASGFSFSRVGMNWYRQAPGKERELVASISSDGSRTNYAHFVKGRFTISRDNVKNMVYLQMNSLKLEDTAVYYCNVPGNSWGQGTQVTVSS
notes: VHH in periplasmic extract of the phage display clone; also called clone 1091; not shown: c-myc tag of the phagemid construct (detected with anti-c-myc 9E10)
B2: ABTx326 (VHH)
VHH: QVQLVESGGGLVQPGGSLRLSCAASGRTFINYAAGWFRQAPGKEREFVARISRSGGRTDYADSVKGRFTISRDNAKSTVYLQMNSLRPEDTAVYYCAEATVWEFTDGADQYDYWGQGTQVTVSS
notes: VHH in periplasmic extract of the phage display clone; also called clone 199; not shown: c-myc tag of the phagemid construct (detected with anti-c-myc 9E10)
B3: ABTx327 (VHH)
VHH: QVQLVESGGGLVQPGGSLRLSCVASGGTFSTYGMGWFRQAPGKEREFVAVITGSGVGTQYADSVKDRFTISRENAKNTVYLQMNTLKLEDTAVYYCVSGHRPGWAVIRADAYEYWGQGTQVTVSS
notes: VHH in periplasmic extract of the phage display clone; also called clone 834; not shown: c-myc tag of the phagemid construct (detected with anti-c-myc 9E10)
B4: ABTx324 (VHH)
VHH: QVQLVESGGGLVQPGGSVRLSCATSGSIFSTNVMGWYRQAPGKEREFVALIRGGGSTHYADSVKGRFIISRENAKTTVYLQMNGLKPEDTAVYYCVIWLGSPGAMSDYWGQGTQVTVSS
notes: VHH in periplasmic extract of the phage display clone; also called clone 550; not shown: c-myc tag of the phagemid construct (detected with anti-c-myc 9E10)
B5: ABTx323 (VHH)
VHH: QVQLQESGGGLVQAGGSLRLSCATSGITSSINVIGWYRQAPGKQRELVALVNSGGQTHYADSVKGRFTISRDNAKNTVFLQMNSLKPEDTAEYYCHGRYGIDNYWGEGTQVTVSS
notes: VHH in periplasmic extract of the phage display clone; also called clone 155; not shown: c-myc tag of the phagemid construct (detected with anti-c-myc 9E10)
B6: ABTx325 (VHH)
VHH: QVQLVESGGGLVQPGGSLRLSCAASGSDASTNNMAWYRQAPGKEREFVALIRTGGSTHVADSMKGRFTISRENAKNTVYLQMNSLKPEDTAVYYCVIWTGSPGALSDYWGQGTQVTVSS
notes: VHH in periplasmic extract of the phage display clone; also called clone 420; not shown: c-myc tag of the phagemid construct (detected with anti-c-myc 9E10)

target: T1, biotinylated human CD5-HIS (human, UniProt P06127 25-372, biotinylated); test: BLI; KD on human CD5 divided by KD on cynomolgus CD5
T1 construct: Loaded onto streptavidin Octet pins; also called huCD5; SA-human CD5; not shown: HIS tag
T1 sequence (looked up): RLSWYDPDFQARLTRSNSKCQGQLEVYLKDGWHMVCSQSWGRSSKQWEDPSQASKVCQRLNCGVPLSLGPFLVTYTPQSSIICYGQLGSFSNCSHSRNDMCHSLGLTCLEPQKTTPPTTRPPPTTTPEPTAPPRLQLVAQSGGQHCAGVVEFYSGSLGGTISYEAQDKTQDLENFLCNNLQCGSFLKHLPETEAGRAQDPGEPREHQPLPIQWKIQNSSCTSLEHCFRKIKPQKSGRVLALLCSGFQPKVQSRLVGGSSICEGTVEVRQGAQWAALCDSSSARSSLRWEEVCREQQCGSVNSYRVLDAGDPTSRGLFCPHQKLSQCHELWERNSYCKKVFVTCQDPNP

How did the “Hu/Cyno KD” value turn out when B1 was run?
Its value is 0.4.

For B2, which “Hu/Cyno KD” value is on record?
Its value is 0.9.

How did the “Hu/Cyno KD” value turn out when B3 was run?
The value was 0.3.

Which “Hu/Cyno KD” value does the source give for B4 here?
Its value is 0.7.

How did the “Hu/Cyno KD” value turn out when B5 was run?
The value was 0.9.

With B6 as the binder, how does the “Hu/Cyno KD” value read?
The value was 0.8.

target: T1, biotinylated human CD5-HIS; test: BLI (Octet), biotinylated CD5-HIS on streptavidin pins

For B1, which Kd is on record?
The Kd was 0.69 nM.

What about the koff of the same binder?
The koff was 9.3e-05 s⁻¹.

What about the kon of the same binder?
Its kon is 130000 M⁻¹ s⁻¹.

Which Kd does the source give for B2 here?
The Kd was 2 nM.

And the koff?
Its koff is 0.00015 s⁻¹.

What about the kon of the same binder?
The kon was 74000 M⁻¹ s⁻¹.

With B3 as the binder, how does the Kd read?
The Kd was 0.22 nM.

What about the koff of the same binder?
The koff was 3.6e-05 s⁻¹.

And the kon?
Its kon is 160000 M⁻¹ s⁻¹.

For B4, which Kd is on record?
The Kd was 1.7 nM.

What about the koff of the same binder?
The koff was 0.00017 s⁻¹.

What about the kon of the same binder?
Its kon is 99000 M⁻¹ s⁻¹.

B5 was tested. Which Kd did it give?
The Kd was 1.2 nM.

What about the koff of the same binder?
Its koff is 0.00011 s⁻¹.

And the kon?
The kon was 93000 M⁻¹ s⁻¹.

B6 was tested. Which Kd did it give?
The Kd was 1.5 nM.

And the koff?
The koff was 0.00013 s⁻¹.

And the kon?
Its kon is 90000 M⁻¹ s⁻¹.

target: T2, biotinylated cynomolgus CD5-HIS (cynomolgus); test: as above
T2 construct: Loaded onto streptavidin Octet pins; also called CynoCD5; SA-Cyno CD5

B1 was tested. Which Kd did it give?
The Kd was 1.6 nM.

And the koff?
The koff was 0.00017 s⁻¹.

And the kon?
The kon was 110000 M⁻¹ s⁻¹.

Which Kd does the source give for B2 here?
The Kd was 2.2 nM.

And the koff?
The koff was 0.00015 s⁻¹.

And the kon?
The kon was 68000 M⁻¹ s⁻¹.

How did the Kd turn out when B3 was run?
The Kd was 0.78 nM.

What about the koff of the same binder?
The koff was 0.00011 s⁻¹.

What about the kon of the same binder?
The kon was 140000 M⁻¹ s⁻¹.

B4 was tested. Which Kd did it give?
The Kd was 2.3 nM.

What about the koff of the same binder?
The koff was 0.00016 s⁻¹.

And the kon?
Its kon is 71000 M⁻¹ s⁻¹.

How did the Kd turn out when B5 was run?
Its Kd is 1.3 nM.

What about the koff of the same binder?
Its koff is 0.00012 s⁻¹.

And the kon?
The kon was 89000 M⁻¹ s⁻¹.

How did the Kd turn out when B6 was run?
Its Kd is 1.8 nM.

What about the koff of the same binder?
Its koff is 0.00013 s⁻¹.

And the kon?
The kon was 68000 M⁻¹ s⁻¹.

target: T3, human CD5 on transfected HEK293T cells (human, UniProt P06127 25-495); test: flow cytometry, periplasmic extract on transfected HEK293T cells
T3 construct: whole, on cells; also called huCD5; Human CD5 Cells
T3 sequence (looked up): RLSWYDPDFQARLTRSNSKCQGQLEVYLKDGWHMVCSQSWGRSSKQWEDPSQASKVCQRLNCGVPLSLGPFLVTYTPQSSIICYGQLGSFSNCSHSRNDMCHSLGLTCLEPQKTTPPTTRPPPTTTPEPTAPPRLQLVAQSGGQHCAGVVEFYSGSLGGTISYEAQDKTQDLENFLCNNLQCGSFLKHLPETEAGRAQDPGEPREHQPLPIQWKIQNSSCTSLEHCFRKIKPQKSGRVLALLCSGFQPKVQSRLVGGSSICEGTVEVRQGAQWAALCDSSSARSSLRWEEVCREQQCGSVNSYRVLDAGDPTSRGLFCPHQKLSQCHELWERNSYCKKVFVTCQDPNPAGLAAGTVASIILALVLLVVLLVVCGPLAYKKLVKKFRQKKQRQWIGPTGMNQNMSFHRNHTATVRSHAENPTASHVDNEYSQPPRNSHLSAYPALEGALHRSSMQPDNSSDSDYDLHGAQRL

How did the “percent of cells showing binding” value turn out when B1 was run?
Its value is 72%.

For B2, which “percent of cells showing binding” value is on record?
Its value is 41.6%.

With B3 as the binder, how does the “percent of cells showing binding” value read?
Its value is 68%.

Which “percent of cells showing binding” value does the source give for B4 here?
The value was 73.3%.

B5 was tested. Which “percent of cells showing binding” value did it give?
Its value is 64.1%.

For B6, which “percent of cells showing binding” value is on record?
Its value is 77.4%.

target: T4, cynomolgus CD5 on transfected HEK293T cells (cynomolgus (Table 8B); rhesus macaque …); test: as above
T4 construct: whole, on cells; also called Cynomolgus CD5 Cells; rhesus macaque (Macaca mulatta) CD5

For B1, which “percent of cells showing binding” value is on record?
The value was 66.5%.

How did the “percent of cells showing binding” value turn out when B2 was run?
Its value is 58.4%.

How did the “percent of cells showing binding” value turn out when B3 was run?
The value was 71.7%.

Which “percent of cells showing binding” value does the source give for B4 here?
Its value is 73.2%.

Which “percent of cells showing binding” value does the source give for B5 here?
The value was 54.6%.

B6 was tested. Which “percent of cells showing binding” value did it give?
Its value is 80%.

target: T1, biotinylated human CD5-HIS; test: BLI (Octet), biotinylated CD5-HIS on streptavidin pins, periplasmic extract, off-rate

For B1, which koff is on record?
The koff was 0.000372 s⁻¹.

For B2, which koff is on record?
The koff was 0.000825 s⁻¹.

B3 was tested. Which koff did it give?
Its koff is 0.0195 s⁻¹.

B4 was tested. Which koff did it give?
The koff was 0.00271 s⁻¹.

Which koff does the source give for B5 here?
The koff was 0.000138 s⁻¹.

Which koff does the source give for B6 here?
The koff was 0.0027 s⁻¹.

target: T2, biotinylated cynomolgus CD5-HIS; test: as above

How did the koff turn out when B1 was run?
Its koff is 0.000488 s⁻¹.

Which koff does the source give for B2 here?
Its koff is 0.00415 s⁻¹.

How did the koff turn out when B3 was run?
The koff was 0.0329 s⁻¹.

B4 was tested. Which koff did it give?
The koff was 0.0177 s⁻¹.

B5 was tested. Which koff did it give?
The koff was 0.000347 s⁻¹.

B6 was tested. Which koff did it give?
The koff was 0.0143 s⁻¹.
